We go through six substances from publication PMC6284106.

A value given as a limit tells only on which side of the number the result lay.

For experiment [1], the target named is human IL-2Rβγ heterodimeric Fc fusion (human) (UniProt P14784).
In experiment [2] the target is cynomolgus IL-2Rβγ heterodimeric Fc fusion (cynomolgus) (UniProt Q38J85). In words: SPR; Biacore T200; biotinylated IL2Rβγ-Fc heterodimer immobilised on streptavidin chips; fusion proteins injected 1.2-300 nM for 2 min, dissociation 10 min; regeneration 3 M MgCl2; global 1:1 model, 'apparent' KD (bivalent binding of the dimeric fusions).
Experiment [3] deals with human IL-2Rβγ heterodimeric Fc fusion (human) (UniProt P14784). The description is as above.
Experiment [4] concerns the target cynomolgus IL-2Rα, monomeric, his-tagged (cynomolgus). In words: SPR; Biacore T200; monomeric his-tagged IL-2Rα immobilised by amine coupling on CM5 chips; 2-fold dilution series (0.41 nM-300 nM) of the IL-2 fusion protein injected for 90 s, dissociation 3 min; regeneration 10 mM glycine pH 1.5; steady state model.
Experiment [5] deals with human IL-2Rα, monomeric, his-tagged (human) (UniProt P01589). Described as above.
UniProt P01589, sequence (P01589 22-272): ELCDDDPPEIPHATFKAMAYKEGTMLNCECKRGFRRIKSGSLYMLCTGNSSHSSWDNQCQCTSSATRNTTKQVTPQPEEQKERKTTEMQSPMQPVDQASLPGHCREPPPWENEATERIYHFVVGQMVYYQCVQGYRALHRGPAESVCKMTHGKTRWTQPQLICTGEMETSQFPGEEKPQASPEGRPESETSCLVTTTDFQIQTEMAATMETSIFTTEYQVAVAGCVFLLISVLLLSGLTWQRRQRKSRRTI
The target of experiment [6] is human IL-2Rβγ heterodimeric Fc fusion (human) (UniProt P14784). The source holds these as a separate data set.

In experiment [1], “IgG-(IL-2N88D)2 (from UniProt P60568 21-153)” yielded an EC50 of pSTAT5 induction in CD4+ effector memory T cells, human whole blood above 10000 pM; an EC50 of pSTAT5 induction in CD4+ naïve Tregs, human whole blood of 18 pM; an EC50 of pSTAT5 induction in CD56bright NK cells, human whole blood above 1000 pM. In addition, the Kd in experiment [2] came out at 0.57 nM. Also, in experiment [3], the Kd worked out at 0.24 nM.

IgG-IL-2 (from UniProt P60568 21-153): the Kd in experiment [2] was determined as 0.18 nM; in experiment [3], 0.04 nM.

“IgG-(IL-2)2 (wild-type dimer: two human IL-2 fused to a non-targeted, effector-silent human IgG1) (from UniProt P60568 21-153)”: the Kd in experiment [4] is 15 nM; in experiment [5] it was 5 nM.

With “IgG-IL-2 (wild-type monomer: one human IL-2 fused to a non-targeted, effector-silent human IgG1) (from UniProt P60568 21-153)”, the Kd in experiment [4] was 30 nM; in experiment [5] it was 15 nM.

With “IgG-(IL-2)2 (from UniProt P60568 21-153)”, in experiment [6], the EC50 of pSTAT5 induction in memory and naïve Tregs, human whole blood is 0.3 pM. In addition, the Kd in experiment [2] turned out to be 0.04 nM; in experiment [3] it was 0.003 nM.

For “IgG-(IL-2N88D)2 (two human IL-2 N88D muteins fused to a non-targeted, effector-silent human IgG1) (from UniProt P60568 21-153)”, the Kd in experiment [4] was 30 nM; in experiment [5], 22 nM.
